# Molecular target: CNTF-Rα/CNTF binary complex (human) (UniProt P26441)
# Assay: SEC
row,stoichiometry N,Substance
1,1,gp130 (D1-D3) (domain or fragment)
2,1,gp130 (D2-D3) (from UniProt P40189 23-918) (domain or fragment)

# — paper PMC2607196
